Consider 20 molecules from patent publication US20240018502A1.

Some results are limits rather than exact numbers.

Sequences and labels used below:
B1: Q38H/I41A/D60bV/F60eR/Y60gW/D96F/F97S/ins97aH/T98G/F99L/C122S/G151N/Q175L/Q192G (enzyme)
chain: VVGGTDADEGEWPWQVSLHALGHGHACGASLISPNWLVSAAHCYIDVRGRRWSDPTQWTAFLGLHDQSQRSAPGVQERRLKRIISHPFFNFSHGLDYDIALLELEKPAEYSSMVRPISLPDASHVFPAGKAIWVTGWGHTQYGGTNALILQKGEIRVINQTTCENLLPQLITPRMMCVGFLSGGVDSCGGDSGGPLSSVEADGRIFQAGVVSWGDGCAQRNKPGVYTRLPLFRDWIKENTGV
B2: Q38H/I41A/F60eH/Y60gW/ins97aE/F97T/T98G/F99L/C122S/Q175L/Q192A (enzyme)
chain: VVGGTDADEGEWPWQVSLHALGHGHACGASLISPNWLVSAAHCYIDDRGHRWSDPTQWTAFLGLHDQSQRSAPGVQERRLKRIISHPFFNDTEGLDYDIALLELEKPAEYSSMVRPISLPDASHVFPAGKAIWVTGWGHTQYGGTGALILQKGEIRVINQTTCENLLPQLITPRMMCVGFLSGGVDSCAGDSGGPLSSVEADGRIFQAGVVSWGDGCAQRNKPGVYTRLPLFRDWIKENTGV
B3: Q38H/I41S/D60bT/F60eS/Y60gW/ins97aV/T98P/F99L/C122S/G151H/Q175L/Q192E (enzyme)
chain: VVGGTDADEGEWPWQVSLHALGHGHSCGASLISPNWLVSAAHCYIDTRGSRWSDPTQWTAFLGLHDQSQRSAPGVQERRLKRIISHPFFNDFVPLDYDIALLELEKPAEYSSMVRPISLPDASHVFPAGKAIWVTGWGHTQYGGTHALILQKGEIRVINQTTCENLLPQLITPRMMCVGFLSGGVDSCEGDSGGPLSSVEADGRIFQAGVVSWGDGCAQRNKPGVYTRLPLFRDWIKENTGV
B4: Q38H/I41A/D60bW/ins97aV/F97D/T98P/F99L/C122S/I136M/Q192G/D217N (enzyme)
chain: VVGGTDADEGEWPWQVSLHALGHGHACGASLISPNWLVSAAHCYIDWRGFRYSDPTQWTAFLGLHDQSQRSAPGVQERRLKRIISHPFFNDDVPLDYDIALLELEKPAEYSSMVRPISLPDASHVFPAGKAMWVTGWGHTQYGGTGALILQKGEIRVINQTTCENLLPQQITPRMMCVGFLSGGVDSCGGDSGGPLSSVEADGRIFQAGVVSWGNGCAQRNKPGVYTRLPLFRDWIKENTGV
B5: Q38H/I41S/D60bF/F60eT/ins97aV/F97D/T98P/F99L/C122S/H143Q/G151N/Q175L/Q192G (enzyme)
chain: VVGGTDADEGEWPWQVSLHALGHGHSCGASLISPNWLVSAAHCYIDFRGTRYSDPTQWTAFLGLHDQSQRSAPGVQERRLKRIISHPFFNDDVPLDYDIALLELEKPAEYSSMVRPISLPDASHVFPAGKAIWVTGWGQTQYGGTNALILQKGEIRVINQTTCENLLPQLITPRMMCVGFLSGGVDSCGGDSGGPLSSVEADGRIFQAGVVSWGDGCAQRNKPGVYTRLPLFRDWIKENTGV
B6: Q38H/I41A/D60bV/F60eR/Y60gW/D96F/F97Y/ins97aN/T98G/F99M/C122S/G151N/Q175L/Q192G (enzyme)
chain: VVGGTDADEGEWPWQVSLHALGHGHACGASLISPNWLVSAAHCYIDVRGRRWSDPTQWTAFLGLHDQSQRSAPGVQERRLKRIISHPFFNFYNGMDYDIALLELEKPAEYSSMVRPISLPDASHVFPAGKAIWVTGWGHTQYGGTNALILQKGEIRVINQTTCENLLPQLITPRMMCVGFLSGGVDSCGGDSGGPLSSVEADGRIFQAGVVSWGDGCAQRNKPGVYTRLPLFRDWIKENTGV
B7: Q38R/I41S/D60bY/F60eD/ins97aV/F97D/T98P/F99L/C122S/G151N/Q175M/Q192A (enzyme)
chain: VVGGTDADEGEWPWQVSLHALGRGHSCGASLISPNWLVSAAHCYIDYRGDRYSDPTQWTAFLGLHDQSQRSAPGVQERRLKRIISHPFFNDDVPLDYDIALLELEKPAEYSSMVRPISLPDASHVFPAGKAIWVTGWGHTQYGGTNALILQKGEIRVINQTTCENLLPQMITPRMMCVGFLSGGVDSCAGDSGGPLSSVEADGRIFQAGVVSWGDGCAQRNKPGVYTRLPLFRDWIKENTGV
B8: Q38H/I41S/D60bT/F60eS/Y60gW/D96Y/F97N/ins97aE/T98S/F99L/C122S/G151H/Q175L/Q192D (enzyme)
chain: VVGGTDADEGEWPWQVSLHALGHGHSCGASLISPNWLVSAAHCYIDTRGSRWSDPTQWTAFLGLHDQSQRSAPGVQERRLKRIISHPFFNYNESLDYDIALLELEKPAEYSSMVRPISLPDASHVFPAGKAIWVTGWGHTQYGGTHALILQKGEIRVINQTTCENLLPQLITPRMMCVGFLSGGVDSCDGDSGGPLSSVEADGRIFQAGVVSWGDGCAQRNKPGVYTRLPLFRDWIKENTGV
B9: Q38H/I41S/D60bT/F60eS/Y60gW/D96F/F97Y/ins97aD/T98G/F99L/C122S/G151H/Q175L/Q192D (enzyme)
chain: VVGGTDADEGEWPWQVSLHALGHGHSCGASLISPNWLVSAAHCYIDTRGSRWSDPTQWTAFLGLHDQSQRSAPGVQERRLKRIISHPFFNFYDGLDYDIALLELEKPAEYSSMVRPISLPDASHVFPAGKAIWVTGWGHTQYGGTHALILQKGEIRVINQTTCENLLPQLITPRMMCVGFLSGGVDSCDGDSGGPLSSVEADGRIFQAGVVSWGDGCAQRNKPGVYTRLPLFRDWIKENTGV
B10: I41T/D60bW/F60eH/F97D/ins97aV/T98P/F99L/C122S/G151N/Q175L/Q192G (enzyme)
chain: VVGGTDADEGEWPWQVSLHALGQGHTCGASLISPNWLVSAAHCYIDWRGHRYSDPTQWTAFLGLHDQSQRSAPGVQERRLKRIISHPFFNDDVPLDYDIALLELEKPAEYSSMVRPISLPDASHVFPAGKAIWVTGWGHTQYGGTNALILQKGEIRVINQTTCENLLPQLITPRMMCVGFLSGGVDSCGGDSGGPLSSVEADGRIFQAGVVSWGDGCAQRNKPGVYTRLPLFRDWIKENTGV
B11: Q38H/I41S/D60bT/F60eS/Y60gW/D96K/F97D/ins97aA/T98P/F99L/C122S/G151N/Q175L/Q192D (enzyme)
chain: VVGGTDADEGEWPWQVSLHALGHGHSCGASLISPNWLVSAAHCYIDTRGSRWSDPTQWTAFLGLHDQSQRSAPGVQERRLKRIISHPFFNKDAPLDYDIALLELEKPAEYSSMVRPISLPDASHVFPAGKAIWVTGWGHTQYGGTNALILQKGEIRVINQTTCENLLPQLITPRMMCVGFLSGGVDSCDGDSGGPLSSVEADGRIFQAGVVSWGDGCAQRNKPGVYTRLPLFRDWIKENTGV
B12: H40R/I41H/Y60gH/F97D/F99L/C122S/Q175M/Q192G/D217I/K224L (enzyme)
chain: VVGGTDADEGEWPWQVSLHALGQGRHCGASLISPNWLVSAAHCYIDDRGFRHSDPTQWTAFLGLHDQSQRSAPGVQERRLKRIISHPFFNDDTLDYDIALLELEKPAEYSSMVRPISLPDASHVFPAGKAIWVTGWGHTQYGGTGALILQKGEIRVINQTTCENLLPQMITPRMMCVGFLSGGVDSCGGDSGGPLSSVEADGRIFQAGVVSWGIGCAQRNLPGVYTRLPLFRDWIKENTGV
B13: Q38Y/I41S/D60bT/Y60gW/D96M/F97N/T98G/F99L/C122S/G151N/Q175L/Q192D (enzyme)
chain: VVGGTDADEGEWPWQVSLHALGYGHSCGASLISPNWLVSAAHCYIDTRGFRWSDPTQWTAFLGLHDQSQRSAPGVQERRLKRIISHPFFNMNGLDYDIALLELEKPAEYSSMVRPISLPDASHVFPAGKAIWVTGWGHTQYGGTNALILQKGEIRVINQTTCENLLPQLITPRMMCVGFLSGGVDSCDGDSGGPLSSVEADGRIFQAGVVSWGDGCAQRNKPGVYTRLPLFRDWIKENTGV
B14: Q38H/I41A/D60bV/F60eR/Y60gW/F97D/F99L/C122S/G151H/Q175L/Q192D (enzyme)
chain: VVGGTDADEGEWPWQVSLHALGHGHACGASLISPNWLVSAAHCYIDVRGRRWSDPTQWTAFLGLHDQSQRSAPGVQERRLKRIISHPFFNDDTLDYDIALLELEKPAEYSSMVRPISLPDASHVFPAGKAIWVTGWGHTQYGGTHALILQKGEIRVINQTTCENLLPQLITPRMMCVGFLSGGVDSCDGDSGGPLSSVEADGRIFQAGVVSWGDGCAQRNKPGVYTRLPLFRDWIKENTGV
B15: Q38Y/I41S/D60bT/F60eR/Y60gW/D96M/T98G/F99L/C122S/G151N/Q175L/Q192D (enzyme)
chain: VVGGTDADEGEWPWQVSLHALGYGHSCGASLISPNWLVSAAHCYIDTRGRRWSDPTQWTAFLGLHDQSQRSAPGVQERRLKRIISHPFFNMFGLDYDIALLELEKPAEYSSMVRPISLPDASHVFPAGKAIWVTGWGHTQYGGTNALILQKGEIRVINQTTCENLLPQLITPRMMCVGFLSGGVDSCDGDSGGPLSSVEADGRIFQAGVVSWGDGCAQRNKPGVYTRLPLFRDWIKENTGV
B16: I41S/F99L/C122S/G151N/Q175M/Q192G/D217V (enzyme)
chain: VVGGTDADEGEWPWQVSLHALGQGHSCGASLISPNWLVSAAHCYIDDRGFRYSDPTQWTAFLGLHDQSQRSAPGVQERRLKRIISHPFFNDFTLDYDIALLELEKPAEYSSMVRPISLPDASHVFPAGKAIWVTGWGHTQYGGTNALILQKGEIRVINQTTCENLLPQMITPRMMCVGFLSGGVDSCGGDSGGPLSSVEADGRIFQAGVVSWGVGCAQRNKPGVYTRLPLFRDWIKENTGV
B17: Modified MTSP-1 protease domain Q38H/I41S/D60bT/F60eS/Y60gW/F97D/ins97aV/T98P/F99L/C122S/G151H/Q175L/Q192E (enzyme)
chain: VVGGTDADEGEWPWQVSLHALGHGHSCGASLISPNWLVSAAHCYIDTRGSRWSDPTQWTAFLGLHDQSQRSAPGVQERRLKRIISHPFFNDDVPLDYDIALLELEKPAEYSSMVRPISLPDASHVFPAGKAIWVTGWGHTQYGGTHALILQKGEIRVINQTTCENLLPQLITPRMMCVGFLSGGVDSCEGDSGGPLSSVEADGRIFQAGVVSWGDGCAQRNKPGVYTRLPLFRDWIKENTGV
B18: Modified MTSP-1 protease domain Q38H/I41S/D60bT/F60eS/Y60gW/F97D/ins97aV/T98P/F99L/C122S/G151H/Q175L/Q192D (enzyme)
chain: VVGGTDADEGEWPWQVSLHALGHGHSCGASLISPNWLVSAAHCYIDTRGSRWSDPTQWTAFLGLHDQSQRSAPGVQERRLKRIISHPFFNDDVPLDYDIALLELEKPAEYSSMVRPISLPDASHVFPAGKAIWVTGWGHTQYGGTHALILQKGEIRVINQTTCENLLPQLITPRMMCVGFLSGGVDSCDGDSGGPLSSVEADGRIFQAGVVSWGDGCAQRNKPGVYTRLPLFRDWIKENTGV
B19: Modified MTSP-1 protease domain Q38H/I41S/D60bT/F60eS/Y60gW/F97D/ins97aV/T98P/F99L/C122S/G151N/Q175L/Q192D (enzyme)
chain: VVGGTDADEGEWPWQVSLHALGHGHSCGASLISPNWLVSAAHCYIDTRGSRWSDPTQWTAFLGLHDQSQRSAPGVQERRLKRIISHPFFNDDVPLDYDIALLELEKPAEYSSMVRPISLPDASHVFPAGKAIWVTGWGHTQYGGTNALILQKGEIRVINQTTCENLLPQLITPRMMCVGFLSGGVDSCDGDSGGPLSSVEADGRIFQAGVVSWGDGCAQRNKPGVYTRLPLFRDWIKENTGV
B20: Modified MTSP-1 protease domain Q38H/I41A/D60bT/F60eK/Y60gW/F97T/ins97aE/T98G/F99L/C122S/G151H/Q175L/Q192D (enzyme)
chain: VVGGTDADEGEWPWQVSLHALGHGHACGASLISPNWLVSAAHCYIDTRGKRWSDPTQWTAFLGLHDQSQRSAPGVQERRLKRIISHPFFNDTEGLDYDIALLELEKPAEYSSMVRPISLPDASHVFPAGKAIWVTGWGHTQYGGTHALILQKGEIRVINQTTCENLLPQLITPRMMCVGFLSGGVDSCDGDSGGPLSSVEADGRIFQAGVVSWGDGCAQRNKPGVYTRLPLFRDWIKENTGV

The target in the first experiment is human complement protein C3 (human) (UniProt P01024). Briefly: cell-based or functional assay.
Sequence of human complement protein C3 (human) (P01024 23-667, chain 1 of 2): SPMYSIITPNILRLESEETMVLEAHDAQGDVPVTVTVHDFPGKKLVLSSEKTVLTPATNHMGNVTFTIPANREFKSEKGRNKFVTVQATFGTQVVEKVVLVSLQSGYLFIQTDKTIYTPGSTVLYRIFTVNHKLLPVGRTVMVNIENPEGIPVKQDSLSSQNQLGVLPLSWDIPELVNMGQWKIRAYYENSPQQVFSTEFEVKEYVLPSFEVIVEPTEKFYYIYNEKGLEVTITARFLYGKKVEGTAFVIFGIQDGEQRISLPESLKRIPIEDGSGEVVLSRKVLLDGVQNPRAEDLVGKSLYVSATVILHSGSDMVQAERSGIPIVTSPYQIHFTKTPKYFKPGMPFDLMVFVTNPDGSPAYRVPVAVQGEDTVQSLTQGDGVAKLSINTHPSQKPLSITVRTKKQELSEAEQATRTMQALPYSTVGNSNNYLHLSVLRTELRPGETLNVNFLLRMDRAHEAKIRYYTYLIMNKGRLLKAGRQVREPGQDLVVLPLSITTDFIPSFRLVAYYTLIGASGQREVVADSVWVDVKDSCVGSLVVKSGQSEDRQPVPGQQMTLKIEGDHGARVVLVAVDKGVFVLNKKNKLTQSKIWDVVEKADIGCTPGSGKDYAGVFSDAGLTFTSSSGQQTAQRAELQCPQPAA
Sequence of human complement protein C3 (human) (P01024 672-1663, chain 2 of 2): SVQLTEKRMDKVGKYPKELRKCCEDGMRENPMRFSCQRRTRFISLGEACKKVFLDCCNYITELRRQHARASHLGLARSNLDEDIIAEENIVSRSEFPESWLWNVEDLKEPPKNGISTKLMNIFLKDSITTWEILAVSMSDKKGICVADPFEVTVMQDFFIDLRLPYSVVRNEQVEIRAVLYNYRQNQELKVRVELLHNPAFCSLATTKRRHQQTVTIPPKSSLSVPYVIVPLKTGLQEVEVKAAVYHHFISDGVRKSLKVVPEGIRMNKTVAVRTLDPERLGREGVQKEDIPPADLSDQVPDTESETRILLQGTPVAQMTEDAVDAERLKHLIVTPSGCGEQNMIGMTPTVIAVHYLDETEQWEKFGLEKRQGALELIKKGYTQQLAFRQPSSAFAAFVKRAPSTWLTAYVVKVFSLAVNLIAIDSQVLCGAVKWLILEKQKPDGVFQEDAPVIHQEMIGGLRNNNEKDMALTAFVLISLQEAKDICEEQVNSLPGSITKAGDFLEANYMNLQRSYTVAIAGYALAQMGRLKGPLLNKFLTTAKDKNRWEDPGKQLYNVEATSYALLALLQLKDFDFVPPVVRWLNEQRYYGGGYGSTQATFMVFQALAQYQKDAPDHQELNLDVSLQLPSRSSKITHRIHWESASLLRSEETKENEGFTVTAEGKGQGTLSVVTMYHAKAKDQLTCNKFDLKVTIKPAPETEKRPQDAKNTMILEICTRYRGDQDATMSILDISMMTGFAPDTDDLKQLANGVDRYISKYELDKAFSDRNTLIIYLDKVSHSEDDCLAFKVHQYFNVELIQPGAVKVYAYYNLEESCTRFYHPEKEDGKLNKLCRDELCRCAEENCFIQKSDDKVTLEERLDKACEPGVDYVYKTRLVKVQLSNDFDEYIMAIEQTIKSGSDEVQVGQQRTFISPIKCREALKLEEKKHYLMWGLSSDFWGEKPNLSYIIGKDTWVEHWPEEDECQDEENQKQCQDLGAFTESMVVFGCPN
The molecule B1 came in with an EC50 (nM), cleavage of purified hC3 in vitro of 3.14 nM.
Molecule B2 gave an EC50 (nM), cleavage of purified hC3 in vitro of 3.09 nM.
As for B3, the EC50 (nM), cleavage of purified hC3 in vitro was determined as 3.19 nM.
Regarding B4, the EC50 (nM), cleavage of purified hC3 in vitro turned out to be 3.06 nM.
Molecule B5 showed an EC50 (nM), cleavage of purified hC3 in vitro of 3.07 nM.
As for B6, the EC50 (nM), cleavage of purified hC3 in vitro turned out to be 3.76 nM.
On the same count and under the same terms, for B7 the value was 3.22 nM; for B8, 4.53 nM; for B9, 3.13 nM.
For B10, the EC50 (nM), cleavage of purified hC3 in vitro turned out to be 3.1 nM.
As to B11, the EC50 (nM), cleavage of purified hC3 in vitro came to 5.92 nM.
B12 gave an EC50 (nM), cleavage of purified hC3 in vitro of 3.72 nM.
Turning to B13, the EC50 (nM), cleavage of purified hC3 in vitro was determined as 3.08 nM.
The molecule B14 yielded an EC50 (nM), cleavage of purified hC3 in vitro of 3.72 nM.
The molecule B15 registered an EC50 (nM), cleavage of purified hC3 in vitro of 3.27 nM.
B16 returned an EC50 (nM), cleavage of purified hC3 in vitro of 3.19 nM.

The target of another experiment is proteinase-activated receptor 2 (PAR-2) (UniProt P55085). Kind of experiment: cell-based or functional assay.
Sequence of proteinase-activated receptor 2 (PAR-2) (P55085 37-397 limits assumed): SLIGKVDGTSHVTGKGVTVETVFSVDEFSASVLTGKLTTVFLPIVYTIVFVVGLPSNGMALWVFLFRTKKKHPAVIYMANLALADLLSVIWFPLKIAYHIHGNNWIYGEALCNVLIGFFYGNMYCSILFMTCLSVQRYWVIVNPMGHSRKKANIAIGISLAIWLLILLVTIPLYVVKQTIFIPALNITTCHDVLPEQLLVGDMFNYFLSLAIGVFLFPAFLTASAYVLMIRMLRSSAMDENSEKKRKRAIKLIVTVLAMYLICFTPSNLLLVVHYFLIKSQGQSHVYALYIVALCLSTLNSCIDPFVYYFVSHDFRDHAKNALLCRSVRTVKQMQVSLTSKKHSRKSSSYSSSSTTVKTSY
The molecule B17 displayed a PAR-2 cell based assay ED50 and SKGR/SL kcat/Km, against wild-type MTSP-1 protease domain with C122S of more than 30 fold.
Still for that read-out and setting: under B18 stands more than 30 fold; under B19, more than 30 fold.
Consider B20, for which the PAR-2 cell based assay ED50 and SKGR/SL kcat/Km, against wild-type MTSP-1 protease domain with C122S was more than 30 fold.
